The values below are quoted from earlier work in US20170037111A1, “Novel peptides and combination of peptides for use in immunotherapy against ovarian cancer and other cancers” (immatics biotechnologies GmbH, priority 2015, published 2017).

The test system of this series is ovarian cancer. The note with it: clinical studies, phase as stated.

B1: abagovomab: anti-CA-125 antibody (antibody, chains of the INN, looked up, V domains shown)
VH: QVKLQESGAELARPGASVKLSCKASGYTFTNYWMQWVKQRPGQGLDWIGAIYPGDGNTRYTHKFKGKATLTADKSSSTAYMQLSSLASEDSGVYYCARGEGNYAWFAYWGQGTTVTVSS
VL: DIELTQSPASLSASVGETVTITCQASENIYSYLAWHQQKQGKSPQLLVYNAKTLAGGVSSRFSGSGSGTHFSLKIKSLQPEDFGIYYCQHHYGILPTFGGGTKLEIK
Regarding B1, the “clinical effect in ovarian cancer patients” value is recorded as “promising results”.
